Assay results as given in patent publication US20210388087A1 (Chugai, published 2021).

target: T1, Human CD137 ECD (human); experiment: Biacore SPR, vs parent H183/L072
T1 construct: entry includes C-terminal His-tag and biotin acceptor peptide; also called human CD137 extracellular domain; 4-1BB
T1 sequence (chain, as listed by the source limits assumed): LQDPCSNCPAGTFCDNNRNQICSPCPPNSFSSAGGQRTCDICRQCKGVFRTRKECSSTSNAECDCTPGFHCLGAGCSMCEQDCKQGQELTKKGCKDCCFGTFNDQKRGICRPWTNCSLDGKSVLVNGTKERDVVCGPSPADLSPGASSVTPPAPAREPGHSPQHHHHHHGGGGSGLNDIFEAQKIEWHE

| Binder | fold change of affinity [fold] |
| --- | --- |
| H183/L072 VL R54K (antibody, name in Kabat numbering, V domains shown, Dual-Ig) VH: QVQLVESGGGLVQPGRSLRLSCAASGFTFSNAWMHWVRQAPGKGLEWVAQIKDKGNAYAAYYAPSVKGRFTISRDDSKNSIYLQMNSLKTEDTAVYYCHYVHYASASTVLPAFGVDAWGQGTTVTVSS VL: DIVMTQSPLSLPVTPGEPASISCQASQELVHMNRNTYLHWYQQKPGQAPRLLIYKVSNKFPGVPDRFSGSGSGTDFTLKISRVEAEDVGVYYCAQGTSVPFTFGQGTKLEIK | 1 |
| H183/L072 VL S26D (antibody, name in Kabat numbering, V domains shown, Dual-Ig) VH: QVQLVESGGGLVQPGRSLRLSCAASGFTFSNAWMHWVRQAPGKGLEWVAQIKDKGNAYAAYYAPSVKGRFTISRDDSKNSIYLQMNSLKTEDTAVYYCHYVHYASASTVLPAFGVDAWGQGTTVTVSS VL: DIVMTQSPLSLPVTPGEPASISCQADQELVHMNRNTYLHWYQQKPGQAPRLLIYKVSNRFPGVPDRFSGSGSGTDFTLKISRVEAEDVGVYYCAQGTSVPFTFGQGTKLEIK | 0.8 |
| H183/L072 VL R54M (antibody, name in Kabat numbering, V domains shown, Dual-Ig) VH: QVQLVESGGGLVQPGRSLRLSCAASGFTFSNAWMHWVRQAPGKGLEWVAQIKDKGNAYAAYYAPSVKGRFTISRDDSKNSIYLQMNSLKTEDTAVYYCHYVHYASASTVLPAFGVDAWGQGTTVTVSS VL: DIVMTQSPLSLPVTPGEPASISCQASQELVHMNRNTYLHWYQQKPGQAPRLLIYKVSNMFPGVPDRFSGSGSGTDFTLKISRVEAEDVGVYYCAQGTSVPFTFGQGTKLEIK | 0.5 |
| H183/L072 VL S26I (antibody, name in Kabat numbering, V domains shown, Dual-Ig) VH: QVQLVESGGGLVQPGRSLRLSCAASGFTFSNAWMHWVRQAPGKGLEWVAQIKDKGNAYAAYYAPSVKGRFTISRDDSKNSIYLQMNSLKTEDTAVYYCHYVHYASASTVLPAFGVDAWGQGTTVTVSS VL: DIVMTQSPLSLPVTPGEPASISCQAIQELVHMNRNTYLHWYQQKPGQAPRLLIYKVSNRFPGVPDRFSGSGSGTDFTLKISRVEAEDVGVYYCAQGTSVPFTFGQGTKLEIK | 0.2 |
| H183/L072 VL S26G (antibody, name in Kabat numbering, V domains shown, Dual-Ig) VH: QVQLVESGGGLVQPGRSLRLSCAASGFTFSNAWMHWVRQAPGKGLEWVAQIKDKGNAYAAYYAPSVKGRFTISRDDSKNSIYLQMNSLKTEDTAVYYCHYVHYASASTVLPAFGVDAWGQGTTVTVSS VL: DIVMTQSPLSLPVTPGEPASISCQAGQELVHMNRNTYLHWYQQKPGQAPRLLIYKVSNRFPGVPDRFSGSGSGTDFTLKISRVEAEDVGVYYCAQGTSVPFTFGQGTKLEIK | 0.9 |
| H183/L072 VL S26N (antibody, name in Kabat numbering, V domains shown, Dual-Ig) VH: QVQLVESGGGLVQPGRSLRLSCAASGFTFSNAWMHWVRQAPGKGLEWVAQIKDKGNAYAAYYAPSVKGRFTISRDDSKNSIYLQMNSLKTEDTAVYYCHYVHYASASTVLPAFGVDAWGQGTTVTVSS VL: DIVMTQSPLSLPVTPGEPASISCQANQELVHMNRNTYLHWYQQKPGQAPRLLIYKVSNRFPGVPDRFSGSGSGTDFTLKISRVEAEDVGVYYCAQGTSVPFTFGQGTKLEIK | 0.7 |
| H183/L072 VL S26P (antibody, name in Kabat numbering, V domains shown, Dual-Ig) VH: QVQLVESGGGLVQPGRSLRLSCAASGFTFSNAWMHWVRQAPGKGLEWVAQIKDKGNAYAAYYAPSVKGRFTISRDDSKNSIYLQMNSLKTEDTAVYYCHYVHYASASTVLPAFGVDAWGQGTTVTVSS VL: DIVMTQSPLSLPVTPGEPASISCQAPQELVHMNRNTYLHWYQQKPGQAPRLLIYKVSNRFPGVPDRFSGSGSGTDFTLKISRVEAEDVGVYYCAQGTSVPFTFGQGTKLEIK | 0.2 |
| H183/L072 VL S26K (antibody, name in Kabat numbering, V domains shown, Dual-Ig) VH: QVQLVESGGGLVQPGRSLRLSCAASGFTFSNAWMHWVRQAPGKGLEWVAQIKDKGNAYAAYYAPSVKGRFTISRDDSKNSIYLQMNSLKTEDTAVYYCHYVHYASASTVLPAFGVDAWGQGTTVTVSS VL: DIVMTQSPLSLPVTPGEPASISCQAKQELVHMNRNTYLHWYQQKPGQAPRLLIYKVSNRFPGVPDRFSGSGSGTDFTLKISRVEAEDVGVYYCAQGTSVPFTFGQGTKLEIK | 0.5 |
| H183/L072 VL R54W (antibody, name in Kabat numbering, V domains shown, Dual-Ig) VH: QVQLVESGGGLVQPGRSLRLSCAASGFTFSNAWMHWVRQAPGKGLEWVAQIKDKGNAYAAYYAPSVKGRFTISRDDSKNSIYLQMNSLKTEDTAVYYCHYVHYASASTVLPAFGVDAWGQGTTVTVSS VL: DIVMTQSPLSLPVTPGEPASISCQASQELVHMNRNTYLHWYQQKPGQAPRLLIYKVSNWFPGVPDRFSGSGSGTDFTLKISRVEAEDVGVYYCAQGTSVPFTFGQGTKLEIK | 0.4 |
| H183/L072 VL R54Q (antibody, name in Kabat numbering, V domains shown, Dual-Ig) VH: QVQLVESGGGLVQPGRSLRLSCAASGFTFSNAWMHWVRQAPGKGLEWVAQIKDKGNAYAAYYAPSVKGRFTISRDDSKNSIYLQMNSLKTEDTAVYYCHYVHYASASTVLPAFGVDAWGQGTTVTVSS VL: DIVMTQSPLSLPVTPGEPASISCQASQELVHMNRNTYLHWYQQKPGQAPRLLIYKVSNQFPGVPDRFSGSGSGTDFTLKISRVEAEDVGVYYCAQGTSVPFTFGQGTKLEIK | 0.8 |
| H183/L072 VL R54P (antibody, name in Kabat numbering, V domains shown, Dual-Ig) VH: QVQLVESGGGLVQPGRSLRLSCAASGFTFSNAWMHWVRQAPGKGLEWVAQIKDKGNAYAAYYAPSVKGRFTISRDDSKNSIYLQMNSLKTEDTAVYYCHYVHYASASTVLPAFGVDAWGQGTTVTVSS VL: DIVMTQSPLSLPVTPGEPASISCQASQELVHMNRNTYLHWYQQKPGQAPRLLIYKVSNPFPGVPDRFSGSGSGTDFTLKISRVEAEDVGVYYCAQGTSVPFTFGQGTKLEIK | 0.9 |
| H183/L072 VL S26H (antibody, name in Kabat numbering, V domains shown, Dual-Ig) VH: QVQLVESGGGLVQPGRSLRLSCAASGFTFSNAWMHWVRQAPGKGLEWVAQIKDKGNAYAAYYAPSVKGRFTISRDDSKNSIYLQMNSLKTEDTAVYYCHYVHYASASTVLPAFGVDAWGQGTTVTVSS VL: DIVMTQSPLSLPVTPGEPASISCQAHQELVHMNRNTYLHWYQQKPGQAPRLLIYKVSNRFPGVPDRFSGSGSGTDFTLKISRVEAEDVGVYYCAQGTSVPFTFGQGTKLEIK | 0.2 |
| H183/L072 VL S26L (antibody, name in Kabat numbering, V domains shown, Dual-Ig) VH: QVQLVESGGGLVQPGRSLRLSCAASGFTFSNAWMHWVRQAPGKGLEWVAQIKDKGNAYAAYYAPSVKGRFTISRDDSKNSIYLQMNSLKTEDTAVYYCHYVHYASASTVLPAFGVDAWGQGTTVTVSS VL: DIVMTQSPLSLPVTPGEPASISCQALQELVHMNRNTYLHWYQQKPGQAPRLLIYKVSNRFPGVPDRFSGSGSGTDFTLKISRVEAEDVGVYYCAQGTSVPFTFGQGTKLEIK | 0.3 |
| H183/L072 VL R54S (antibody, name in Kabat numbering, V domains shown, Dual-Ig) VH: QVQLVESGGGLVQPGRSLRLSCAASGFTFSNAWMHWVRQAPGKGLEWVAQIKDKGNAYAAYYAPSVKGRFTISRDDSKNSIYLQMNSLKTEDTAVYYCHYVHYASASTVLPAFGVDAWGQGTTVTVSS VL: DIVMTQSPLSLPVTPGEPASISCQASQELVHMNRNTYLHWYQQKPGQAPRLLIYKVSNSFPGVPDRFSGSGSGTDFTLKISRVEAEDVGVYYCAQGTSVPFTFGQGTKLEIK | 0.9 |
| H183/L072 VL S26M (antibody, name in Kabat numbering, V domains shown, Dual-Ig) VH: QVQLVESGGGLVQPGRSLRLSCAASGFTFSNAWMHWVRQAPGKGLEWVAQIKDKGNAYAAYYAPSVKGRFTISRDDSKNSIYLQMNSLKTEDTAVYYCHYVHYASASTVLPAFGVDAWGQGTTVTVSS VL: DIVMTQSPLSLPVTPGEPASISCQAMQELVHMNRNTYLHWYQQKPGQAPRLLIYKVSNRFPGVPDRFSGSGSGTDFTLKISRVEAEDVGVYYCAQGTSVPFTFGQGTKLEIK | 0.6 |
| H183/L072 VL S26E (antibody, name in Kabat numbering, V domains shown, Dual-Ig) VH: QVQLVESGGGLVQPGRSLRLSCAASGFTFSNAWMHWVRQAPGKGLEWVAQIKDKGNAYAAYYAPSVKGRFTISRDDSKNSIYLQMNSLKTEDTAVYYCHYVHYASASTVLPAFGVDAWGQGTTVTVSS VL: DIVMTQSPLSLPVTPGEPASISCQAEQELVHMNRNTYLHWYQQKPGQAPRLLIYKVSNRFPGVPDRFSGSGSGTDFTLKISRVEAEDVGVYYCAQGTSVPFTFGQGTKLEIK | 0.8 |
| H183/L072 VL R54V (antibody, name in Kabat numbering, V domains shown, Dual-Ig) VH: QVQLVESGGGLVQPGRSLRLSCAASGFTFSNAWMHWVRQAPGKGLEWVAQIKDKGNAYAAYYAPSVKGRFTISRDDSKNSIYLQMNSLKTEDTAVYYCHYVHYASASTVLPAFGVDAWGQGTTVTVSS VL: DIVMTQSPLSLPVTPGEPASISCQASQELVHMNRNTYLHWYQQKPGQAPRLLIYKVSNVFPGVPDRFSGSGSGTDFTLKISRVEAEDVGVYYCAQGTSVPFTFGQGTKLEIK | 1.3 |
| H183/L072 VL S26F (antibody, name in Kabat numbering, V domains shown, Dual-Ig) VH: QVQLVESGGGLVQPGRSLRLSCAASGFTFSNAWMHWVRQAPGKGLEWVAQIKDKGNAYAAYYAPSVKGRFTISRDDSKNSIYLQMNSLKTEDTAVYYCHYVHYASASTVLPAFGVDAWGQGTTVTVSS VL: DIVMTQSPLSLPVTPGEPASISCQAFQELVHMNRNTYLHWYQQKPGQAPRLLIYKVSNRFPGVPDRFSGSGSGTDFTLKISRVEAEDVGVYYCAQGTSVPFTFGQGTKLEIK | 0.2 |
| H183/L072 VL R54L (antibody, name in Kabat numbering, V domains shown, Dual-Ig) VH: QVQLVESGGGLVQPGRSLRLSCAASGFTFSNAWMHWVRQAPGKGLEWVAQIKDKGNAYAAYYAPSVKGRFTISRDDSKNSIYLQMNSLKTEDTAVYYCHYVHYASASTVLPAFGVDAWGQGTTVTVSS VL: DIVMTQSPLSLPVTPGEPASISCQASQELVHMNRNTYLHWYQQKPGQAPRLLIYKVSNLFPGVPDRFSGSGSGTDFTLKISRVEAEDVGVYYCAQGTSVPFTFGQGTKLEIK | 0.9 |
| H183/L072 VL R54T (antibody, name in Kabat numbering, V domains shown, Dual-Ig) VH: QVQLVESGGGLVQPGRSLRLSCAASGFTFSNAWMHWVRQAPGKGLEWVAQIKDKGNAYAAYYAPSVKGRFTISRDDSKNSIYLQMNSLKTEDTAVYYCHYVHYASASTVLPAFGVDAWGQGTTVTVSS VL: DIVMTQSPLSLPVTPGEPASISCQASQELVHMNRNTYLHWYQQKPGQAPRLLIYKVSNTFPGVPDRFSGSGSGTDFTLKISRVEAEDVGVYYCAQGTSVPFTFGQGTKLEIK | 2.5 |
